Experimental data as given in publication PMC2906495, “A kinesin motor in a force-producing conformation” (BMC Structural Biology, 2010).

Key:
[1] = target: the molecule itself; test: crystal structure; NcdT436S at 4.5 mg/ml incubated with 4 mM MgCl2 and 4 mM ATP, hanging drops at room temperature, 11.5% PEG 8K, 25 mM sodium-phosphate pH 6.26, 0.5 M NaCl; molecular replacement with PDB 1N6M; two chains (A, B) joined by the coiled-coil stalk
[2] = target: microtubules (polymerized tubulin)

B1: NcdT436S, nonfusion protein for crystallization (MGSM-H293-K700) (domain or fragment, Drosophila)
chain: MGSMHAALSTEVVHLRQRTEELLRCNEQQAAELETCKEQLFQSNMERKELHNTVMDLRGNIRVFCRIRPPLESEENRMCCTWTYHDESTVELQSIDAQAKSKMGQQIFSFDQVFHPLSSQSDIFEMVSPLIQSALDGYNICIFAYGQSGSGKTYTMDGVPESVGVIPRTVDLLFDSIRGYRNLGWEYEIKATFLEIYNEVLYDLLSNEQKDMEIRMAKNNKNDIYVSNITEETVLDPNHLRHLMHTAKMNRATASTAGNERSSRSHAVTKLELIGRHAEKQEISVGSINLVDLAGSESPKTSTRMTETKNINRSLSELTNVILALLQKQDHIPYRNSKLTHLLMPSLGGNSKTLMFINVSPFQDCFQESVKSLRFAASVNSCKMTKAKRNRYLNNSVANSSTQSNNSGSFDK
notes: N-terminal leader of the construct MGSM-H293-K700; kinesin-14 Ncd of Drosophila, residues H293-K700 (part of the coiled-coil stalk, neck, motor domain and C-terminus), with T436S in the P-loop; The printed mass of 93,692 Da fits two chains (dimer); In the crystal, chain A is visible from M292 to K671 and chain B from G290 to K674; also called kinesin-14 Ncd T436S; source: E. coli BL21(DE3)pLysS …
B1: binds [1].

B2: GST/NcdT436S (GST-…-K210-K700) (domain or fragment)
chain: SDLVPRGSPVKTKYEKQTEDMGELESMPQQLEETQNKLIETESSLKNTQSDNECLQRQVKQHTAKIETITSTLGRTKEELSELQAIHEKVKTEHAALSTEVVHLRQRTEELLRCNEQQAAELETCKEQLFQSNMERKELHNTVMDLRGNIRVFCRIRPPLESEENRMCCTWTYHDESTVELQSIDAQAKSKMGQQIFSFDQVFHPLSSQSDIFEMVSPLIQSALDGYNICIFAYGQSGSGKTYTMDGVPESVGVIPRTVDLLFDSIRGYRNLGWEYEIKATFLEIYNEVLYDLLSNEQKDMEIRMAKNNKNDIYVSNITEETVLDPNHLRHLMHTAKMNRATASTAGNERSSRSHAVTKLELIGRHAEKQEISVGSINLVDLAGSESPKTSTRMTETKNINRSLSELTNVILALLQKQDHIPYRNSKLTHLLMPSLGGNSKTLMFINVSPFQDCFQESVKSLRFAASVNSCKMTKAKRNRYLNNSVANSSTQSNNSGSFDK
B2 showed a K (m,MTs) of the microtubule-stimulated steady-state ATPase (0.5 μM motor, 1 mM MgATP, 0-2.5 μM microtubules) [2] of 1.3 µM.

B3: wild-type GST/Ncd (GST/MC1) (domain or fragment)
chain: KTKYEKQTEDMGELESMPQQLEETQNKLIETESSLKNTQSDNECLQRQVKQHTAKIETITSTLGRTKEELSELQAIHEKVKTEHAALSTEVVHLRQRTEELLRCNEQQAAELETCKEQLFQSNMERKELHNTVMDLRGNIRVFCRIRPPLESEENRMCCTWTYHDESTVELQSIDAQAKSKMGQQIFSFDQVFHPLSSQSDIFEMVSPLIQSALDGYNICIFAYGQTGSGKTYTMDGVPESVGVIPRTVDLLFDSIRGYRNLGWEYEIKATFLEIYNEVLYDLLSNEQKDMEIRMAKNNKNDIYVSNITEETVLDPNHLRHLMHTAKMNRATASTAGNERSSRSHAVTKLELIGRHAEKQEISVGSINLVDLAGSESPKTSTRMTETKNINRSLSELTNVILALLQKQDHIPYRNSKLTHLLMPSLGGNSKTLMFINVSPFQDCFQESVKSLRFAASVNSCKMTKAKRNRYLNNSVANSSTQSNNSGSFDK
With B3 the K (m,MTs) of the microtubule-stimulated steady-state ATPase (0.5 μM motor, 1 mM MgATP, 0-2.5 μM microtubules) [2] was 1.6 µM.
